Experimental findings from patent US20180086836A1 (GLENMARK PHARMACEUTICALS S A, published 2018) are described below.

Experiment [1] concerns the target T1, recombinant cynomologus N-terminal CCR6 peptide Fc (cynomolgus monkey; human).
T1 construct: It differs from the human construct only in the CCR6 N-terminus; also called Cyno CCR6-Fc; cynoCCR6-Nter-Fc
The experiment in a line: SPR (BIAcore 2000), Fc-fused cynomolgus CCR6 N-terminal peptide immobilised on CM5, antibody as analyte, bivalent analyte model. As to the method: (§1) Kinetic binding affinity constants (KD) were measured on Fc-fused huCCR6 N-terminal and cynoCCR6 N-terminal peptides with the 4H11 VH5/VL1 IgG4hs antibody as analyte. Same measurements were performed using the 4H11 VH5/VL1 IgG1 antibody and chimeric 4H11 antibody for comparison. Measurements were conducted on a BIAcore 2000 (GE Healthcare—BIAcore, GE Healthcare Europe GmbH, Glattbrugg, Switzerland) at room temperature, and analyzed with the BiaEvaluation software (BIAcore; v4.1, GE Healthcare Europe GmbH) using a bivalent analyte kinetic affinity model.
(§2) A CM5 research grade sensor chip (GE Healthcare Europe GmbH; ref. BR-1000-14) was activated by injecting 35 μl of a 1:1 N-hydroxysulfosuccinimide (NHS)/1-Ethyl-3-[3-dimethylaminopropyl]carbodiimide Hydrochloride (EDC) solution (v/v; 5 μl/min flow-rate; on flow paths 1 and 2). Fc-fused human or cynomologus CCR6 N-terminal peptides were diluted to a final concentration of 25 nM in acetate buffer pH 4.5 (GE Healthcare Europe GmbH, BR-1003-50; one pH unit below pI) and subsequently immobilized on the previously activated CM5 sensor chip by injecting 20 μl on both flow path 1 and 2 (5 μl/min); this corresponded to approximately 300 response units (RUs). The human or cynomologus CCR6 N-terminal peptides coupled CM5 sensor chip was then deactivated by injecting 35 μl of ethanolamine solution (5 μl/min). […]

The target in experiment [2] is T2, recombinant human N-terminal CCR6 Fc (human).
T2 construct: also called human CCR6-Fc; hsCCR6-Nter-Fc
The experiment is described as follows: SPR (BIAcore 2000), Fc-fused human CCR6 N-terminal peptide immobilised on CM5, antibody as analyte, bivalent analyte model. Here is the method: as §1, §2

In experiment [3] the target is T2, recombinant human N-terminal CCR6 Fc. The experiment in a line: direct ELISA, Fc fusion coated at 2 µg/ml, anti-human F(ab')2-HRP. As to the method:
(§3) FIG. 8: Direct binding ELISA on immobilized recombinant human N-terminal CCR6 Fc. Binding of humanized 4H11 H5L1 antibody on human N terminus fragment of CCR6 was measured by direct ELISA. Various concentrations (ranging from 10 to 0.00006 μg/ml) of humanized 4H11 H5L1 in IgG1 and IgG4HS backbones were incubated with 2 μg/ml of either recombinant human N terCCR6-Fc tagged protein (FIG. 8A) or recombinant cynomologus N-terminal peptide Fc (FIG. 8B), coated overnight at 4° C. in a 96-well plate. Binding of humanized 4H11 H5L1 antibody to Nter CCR6-Fc protein was detected by horseradish peroxidase (HRP)-conjugated anti-human (Fab)′2-specific antibody.
(§4) A binding ELISA was performed to test the reactivity of 4H11 VH5/VL1 IgG1 and 4H11 VH5/VL1 IgG4HS antibodies on peptides consisting of the N-terminal region of CCR6 from human and cynomologus species. Briefly, 96 well-microtiter plates (Costar USA, distributor VWR AG, Nyon, Switzerland) were coated with 100 μl of recombinant human and cynomologus N-terminus peptide-Fc at 2 μg/ml in PBS. Plates were incubated overnight at 4° C. and were then blocked with PBS 2% BSA (Bovine Serum Albumine, PAA Laboratories, Pasching, Austria) at room temperature (RT) for one hour. The blocking solution was removed and various concentrations of 4H11 VH5/VL1 IgG1 and 4H11 VH5/VL1 IgG4HS were added. The plates were incubated at RT for 1 hour, then washed six times with PBS 0.01% Tween-20 (Sigma-Aldrich Chemie GmbH, Buchs, Switzerland) and a goat-anti human Ig F(ab′)2 fragment specific-HRP (Jackson ImmunoResearch Europe Ltd, Newmarket, UK). After washing, the plates were incubated with TMB substrate (Bio-Rad Laboratories AG, Reinach, Switzerland) to reveal antibody binding. The reaction was stopped by adding 2M H₂SO₄ and the optical density was read at 450 nm (OD 450 nm) on a Synergy HT2 spectrophotometer (Biotek, USA; distributor: WITTEC AG, Littau, Switzerland).

Experiment [4] deals with T1, recombinant cynomologus N-terminal CCR6 …. The experiment is described as above. As to the method: as §3, §4
For experiment [5], the target named is T2, recombinant human N-terminal CCR6 Fc. The experiment is described as follows: SPR (BIAcore 2000), Fc-fused peptide immobilized on CM5 chip, antibody as analyte, bivalent analyte model. Here is the method:
as §1, §2

The target of experiment [6] is T1, recombinant cynomologus N-terminal CCR6 …. Described as above. As to the method: as §1, §2
The target in the next experiment is T3, human CCR6 (human, UniProt P51684 1-374).
T3 construct: Full length human CCR6 on transfected BAF or CHO cells, or native on human PBMCs; also called hsCCR6; CCR6 receptor
T3 sequence: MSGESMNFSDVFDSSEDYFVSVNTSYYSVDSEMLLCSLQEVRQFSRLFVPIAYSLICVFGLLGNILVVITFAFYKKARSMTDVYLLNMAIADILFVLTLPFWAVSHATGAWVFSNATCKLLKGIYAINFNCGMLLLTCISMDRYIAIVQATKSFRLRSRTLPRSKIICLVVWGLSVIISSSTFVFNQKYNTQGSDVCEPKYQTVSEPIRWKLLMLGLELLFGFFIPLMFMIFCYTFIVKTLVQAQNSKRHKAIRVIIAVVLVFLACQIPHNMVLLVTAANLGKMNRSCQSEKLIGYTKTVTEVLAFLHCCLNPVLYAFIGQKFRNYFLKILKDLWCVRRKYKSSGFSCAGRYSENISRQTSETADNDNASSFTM
The experiment is described as follows: flow cytometry blocking assay on CCR6-transfected BAF cells; blocked ligand: recombinant human CCL20 at 0.5 µg/ml, detected with biotinylated anti-CCL20 and streptavidin-APC. As to the method:
Cells transfected with CCR6 were incubated at 4° C. for 20 minutes with humanized 4H11-VH5/VL1 serially diluted (from 100 to 0.00001 μg/ml) in FACS buffer containing 0.1% of azide. Cells were centrifuged and incubated at 4° C. for 20 minutes with 0.5 μg/ml of recombinant human CCL20. To detect CCL20 bound to CCR6, cells were incubated with a biotinylated goat anti-human CCL20, followed by incubation with Allophycocyanin (APC)-labelled Streptavidin diluted at 1/100 in FACS buffer containing 0.1% of azide. To evaluate blocking potential of humanized 4H11 VH5/VL1 IgG4HS, percentage of CCL20 was measured at each concentration of antibody. Maximum binding activity of CCL20 to CCR6 was calculated as a percentage of that seen for the isotype control.
To determine whether 4H11 VH5/VL1 IgG4HS neutralizes CCR6-mediated biological function through a direct inhibition of CCL20-CCR6 interaction, an assay using flow cytometry approach was set up. Briefly, BAF cells transfected with CCR6 were counted and diluted at 1*10⁶ cells/ml in FACS buffer containing 0.1% of azide. […] Then, CCL20 was detected using a biotinylated anti-human CCL20 (R&D Systems, clone BAF360) followed by allophycocyanin (APC)-labelled streptavidin diluted in FACS buffer+0.1% azide at 1 μg/ml and 1/100, respectively. Cells were washed two times in FACS buffer, 0.1% azide and samples were analysed by flow cytometry. […]

B1: 4H11 VH5/VL1 IgG4HS antibody (antibody, V domains shown)
VH: EVQLVESGGGLVQPGGSLRLSCAASGFSFSDYYMYWVRQAPGKGLEWVSYITNGGITYYPDSVKGRFTISRDNSKNTLYLQMNSLRAEDTAVYYCTSPLRGAWFAYWGQGTLVTVSS
VL: DVVMTQSPLSLPVTLGQPASISCRSSQSIVHSNGNTYLEWYQQRPGQSPRLLIYKVSNRFSGVPDRFSGSGSGTDFTLKISRVEAEDVGVYYCFQGSHVPLTFGQGTKLEIK
notes: also called humanized 4H11 H5L1 IgG4HS; humanized 4H11-VH5/VL1
For the molecule B1, the off-rate (koff) came to 0.0015 s⁻¹ in experiment [1] and 0.000798 s⁻¹ in experiment [2]. The kon amounted to 320000 M⁻¹ s⁻¹ in experiment [1] and 510000 M⁻¹ s⁻¹ in experiment [2]. For the same molecule, the concentration giving a half-maximal response (EC50 (read off the curve)) was around 0.06 µg/mL in experiment [3] and around 0.2 µg/mL in experiment [4]. The Kd in experiment [5] worked out at 1.56 nM; in experiment [6], 4.67 nM. Also, in the experiment with human CCR6, the “IC50 (read off the curve)” value is around 0.5 µg/mL.
